Measurements reported in patent US20240207313A1.

Assays:
[1] = biological target: T-cell surface glycoprotein CD4 [Homo sapiens] (Homo sapiens) (UniProt P01730); test: cell-based or functional assay
[2] = biological target: T-cell receptor with TCR Vbeta 7.1 chain (H. sapiens rearranged TCR Vbeta 7.1) (H. sapiens); test: cell-based or functional assay
T-cell receptor with TCR Vbeta 7.1 chain (H. sapiens rearranged TCR Vbeta 7.1) (H. sapiens), sequence (A0A577 whole entry, form in doubt): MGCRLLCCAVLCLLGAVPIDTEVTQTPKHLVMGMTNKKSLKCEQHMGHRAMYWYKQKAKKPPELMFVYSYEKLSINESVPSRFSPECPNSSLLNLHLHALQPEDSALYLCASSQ

CD4-positive cells remaining in the culture after CAR transduction (flow cytometry) [1]: 45%
TCR Vβ7.1-positive cells remaining five days after CAR transduction (flow cytometry) [2]: 1.2%
Substance: CART20 anti-CD20 chimeric antigen receptor (scFv of monoclonal antibody Leu16 in the third-generation CAR backbone), expressed on transduced human T cells
